Key:
alpha-thrombin = alpha-thrombin (Homo sapiens, UniProt P00734;P00734 P00734:328-363,P00734:364-622); assay: flow; FP-only particle negative control, 20 pM thrombin
[1] = target: Plasminogen activator inhibitor-1 (PAI-1) (Homo sapiens, UniProt P05121 P05121:24-402); assay: flow; FP-only particle negative control, 1 nM PAI-1; settings: tags: His6; biotinylated (NHS-PEO4); Millipore
[2] = target: 4-1BB/TNFRSF9/CD137 Fc chimera (Homo sapiens, UniProt Q07011 Q07011:24-186); assay: flow; FP-only particle negative control, 4 nM 4-1BB; settings: tags: Fc fusion; His6; biotinylated (NHS-PEO4); R&D Systems; chain copies: 2
Sequence of 4-1BB/TNFRSF9/CD137 Fc chimera (Q07011 24-186, change not shown, one chain of several): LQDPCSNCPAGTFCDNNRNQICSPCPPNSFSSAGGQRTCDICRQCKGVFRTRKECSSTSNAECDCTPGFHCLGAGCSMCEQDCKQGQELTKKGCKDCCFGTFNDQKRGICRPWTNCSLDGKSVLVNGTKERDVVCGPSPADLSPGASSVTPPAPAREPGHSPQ

[3] = target: Apolipoprotein E3 (ApoE3) (Homo sapiens, UniProt P02649 P02649:19-317); assay: flow; FP-only particle negative control, 3 nM ApoE; settings: tags: His6; biotinylated (NHS-PEO4); R&D Systems
Sequence of Apolipoprotein E3 (ApoE3) (P02649 19-317, one chain of several): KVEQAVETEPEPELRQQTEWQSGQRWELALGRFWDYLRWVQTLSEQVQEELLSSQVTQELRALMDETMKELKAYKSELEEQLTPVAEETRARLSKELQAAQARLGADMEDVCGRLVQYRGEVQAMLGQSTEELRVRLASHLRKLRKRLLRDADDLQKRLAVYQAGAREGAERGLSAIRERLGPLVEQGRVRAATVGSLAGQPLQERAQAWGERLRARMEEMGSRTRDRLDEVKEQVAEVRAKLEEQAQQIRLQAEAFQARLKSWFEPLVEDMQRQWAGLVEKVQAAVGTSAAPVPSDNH

Measured: binding result

Sequence of Plasminogen activator inhibitor-1 (PAI-1) (P05121 24-402, one chain of several): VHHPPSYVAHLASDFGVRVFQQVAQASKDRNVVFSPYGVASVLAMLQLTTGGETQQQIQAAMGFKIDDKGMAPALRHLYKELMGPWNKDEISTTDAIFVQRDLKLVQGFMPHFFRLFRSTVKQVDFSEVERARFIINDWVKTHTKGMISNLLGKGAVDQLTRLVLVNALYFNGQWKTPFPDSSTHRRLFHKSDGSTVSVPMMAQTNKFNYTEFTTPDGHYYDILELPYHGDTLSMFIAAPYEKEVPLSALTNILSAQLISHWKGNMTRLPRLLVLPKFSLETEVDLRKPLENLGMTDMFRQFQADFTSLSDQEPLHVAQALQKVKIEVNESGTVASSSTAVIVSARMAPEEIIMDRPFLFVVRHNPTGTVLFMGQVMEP

B1: Forward primer (FP) control (ssDNA)
DNA: AGCAGCACAGAGGTCAGATG
modifications: 5'-amino-PEG18, coupled to magnetic particle
no binding: all assays above
